{"source": "patent US20070196354A1", "about": "“Method of treating diabetes by inhibiting degradation of at least one of crebl1, atf6, and hnf-4 alpha by htra” (priority 2003, published 2007)", "key": {"[1]": {"target": "T1, ATF6 (SEQ ID NO: 18) with c-Myc-tag ligated at the N-terminal", "T1 chain": "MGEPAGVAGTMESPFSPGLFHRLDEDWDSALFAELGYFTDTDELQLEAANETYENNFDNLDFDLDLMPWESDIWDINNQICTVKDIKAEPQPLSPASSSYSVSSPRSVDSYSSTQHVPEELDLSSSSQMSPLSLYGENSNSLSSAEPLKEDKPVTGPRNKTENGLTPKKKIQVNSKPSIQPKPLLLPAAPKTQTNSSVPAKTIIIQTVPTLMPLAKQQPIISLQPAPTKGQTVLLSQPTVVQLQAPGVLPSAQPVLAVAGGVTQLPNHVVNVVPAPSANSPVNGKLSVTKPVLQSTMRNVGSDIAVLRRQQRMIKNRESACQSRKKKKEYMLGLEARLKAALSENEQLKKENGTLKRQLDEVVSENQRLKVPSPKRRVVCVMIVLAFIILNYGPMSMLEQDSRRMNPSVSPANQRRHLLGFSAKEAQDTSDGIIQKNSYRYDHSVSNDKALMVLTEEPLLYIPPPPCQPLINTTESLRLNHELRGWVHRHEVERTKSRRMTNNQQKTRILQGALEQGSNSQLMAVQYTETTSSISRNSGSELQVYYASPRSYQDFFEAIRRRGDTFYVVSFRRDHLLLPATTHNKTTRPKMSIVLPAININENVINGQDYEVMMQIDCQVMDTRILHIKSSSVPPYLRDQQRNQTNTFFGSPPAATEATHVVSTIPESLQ"}, "[2]": {"target": "T2, biotinylated CREBL1 (N-terminal tagged-CREBL1 with biotinylated lysine residue within the protein)", "T2 chain": "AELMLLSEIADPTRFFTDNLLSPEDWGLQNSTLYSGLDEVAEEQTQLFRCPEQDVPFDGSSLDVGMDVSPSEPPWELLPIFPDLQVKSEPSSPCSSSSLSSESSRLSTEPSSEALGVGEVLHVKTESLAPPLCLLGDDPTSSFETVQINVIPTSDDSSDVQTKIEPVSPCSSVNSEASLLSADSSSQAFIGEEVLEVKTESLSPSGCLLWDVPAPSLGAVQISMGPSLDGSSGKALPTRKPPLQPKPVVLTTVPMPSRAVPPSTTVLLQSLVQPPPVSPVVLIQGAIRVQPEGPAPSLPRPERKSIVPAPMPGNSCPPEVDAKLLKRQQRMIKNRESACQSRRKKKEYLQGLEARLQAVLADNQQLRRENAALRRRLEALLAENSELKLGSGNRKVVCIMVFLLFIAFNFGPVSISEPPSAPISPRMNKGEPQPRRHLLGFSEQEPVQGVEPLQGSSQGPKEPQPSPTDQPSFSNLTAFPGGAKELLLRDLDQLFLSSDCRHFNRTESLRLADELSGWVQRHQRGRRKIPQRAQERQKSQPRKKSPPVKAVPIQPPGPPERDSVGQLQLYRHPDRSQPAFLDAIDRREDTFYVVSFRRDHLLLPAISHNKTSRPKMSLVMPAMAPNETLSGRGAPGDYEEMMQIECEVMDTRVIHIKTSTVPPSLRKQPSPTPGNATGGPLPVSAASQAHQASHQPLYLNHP"}, "[3]": {"target": "T3, CREBL1 (SEQ ID NO: 16) with c-Myc-tag ligated at the N-terminal", "T3 chain": "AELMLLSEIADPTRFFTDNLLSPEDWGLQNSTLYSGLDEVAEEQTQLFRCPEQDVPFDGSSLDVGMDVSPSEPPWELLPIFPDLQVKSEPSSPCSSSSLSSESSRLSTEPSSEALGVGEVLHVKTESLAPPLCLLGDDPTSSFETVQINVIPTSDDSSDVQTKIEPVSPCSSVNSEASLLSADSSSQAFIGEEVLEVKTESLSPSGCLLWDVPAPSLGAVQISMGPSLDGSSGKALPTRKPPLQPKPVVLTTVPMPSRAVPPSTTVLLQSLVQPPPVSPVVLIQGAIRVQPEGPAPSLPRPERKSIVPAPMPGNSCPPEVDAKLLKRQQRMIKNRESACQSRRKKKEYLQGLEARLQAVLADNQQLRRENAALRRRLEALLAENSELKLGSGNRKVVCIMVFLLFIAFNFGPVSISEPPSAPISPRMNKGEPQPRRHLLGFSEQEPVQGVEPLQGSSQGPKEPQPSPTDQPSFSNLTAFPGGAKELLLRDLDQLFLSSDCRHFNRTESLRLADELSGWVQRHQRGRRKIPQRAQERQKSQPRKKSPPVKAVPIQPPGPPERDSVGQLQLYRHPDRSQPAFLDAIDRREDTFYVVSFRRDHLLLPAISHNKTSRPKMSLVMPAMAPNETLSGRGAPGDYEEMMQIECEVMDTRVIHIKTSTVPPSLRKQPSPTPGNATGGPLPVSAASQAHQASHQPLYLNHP"}, "[4]": {"target": "T4, HNF-4α (SEQ ID NO: 35) with N-terminal tag, as used in Example 6", "T4 chain": "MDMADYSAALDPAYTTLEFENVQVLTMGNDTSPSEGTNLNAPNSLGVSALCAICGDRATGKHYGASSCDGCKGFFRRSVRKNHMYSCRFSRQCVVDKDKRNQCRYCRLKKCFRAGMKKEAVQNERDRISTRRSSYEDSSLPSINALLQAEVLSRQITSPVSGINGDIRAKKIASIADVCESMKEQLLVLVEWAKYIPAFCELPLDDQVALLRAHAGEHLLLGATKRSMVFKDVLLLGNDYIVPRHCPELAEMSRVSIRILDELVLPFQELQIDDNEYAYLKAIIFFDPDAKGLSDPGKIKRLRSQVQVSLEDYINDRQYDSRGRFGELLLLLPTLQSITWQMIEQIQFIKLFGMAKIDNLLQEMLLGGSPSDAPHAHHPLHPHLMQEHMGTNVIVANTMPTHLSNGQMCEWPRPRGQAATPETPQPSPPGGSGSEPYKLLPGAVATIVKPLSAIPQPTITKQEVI"}}}
{"protein": "mature HtrA2 (SEQ ID NO: 4) with histidine (His)-tag ligated at the C-terminal (protein) MAVPSPPPASPRSQYNFIADVVEKTAPAVVYIEILDRHPFLGREVPISNGSGFVVAADGLIVTNAHVVADRRRVRVRLLSGDTYEAVVTAVDPVADIATLRIQTKEPLPTLPLGRSADVRQGEFVVAMGSPFALQNTITSGIVSSAQRPARDLGLPQTNVEYIQTDAAIDFGNSGGPLVNLDGEVIGVNTMKVTAGISFAIPSDRLREFLHRGEKKNSSSGISGSQRRYIGVMMLTLSPSILAELQLREPSFPDVQHGVLIHKVILGSPAHRAGLRPGDVILAIGEQMVQNAEDVYEAVRTQSQLAVQIRRGRETLTLYVTPEVTE", "values": [{"measurement": "in vitro protease assay; western blotting of ATF6 band", "setting": "[1]", "value": "the band of ATF6 was reduced significantly after the reaction of active HtrA2 with ATF6 for four hours (4 h) or overnight (O/N)"}, {"measurement": "in vitro protease assay; degradation pattern of biotinylated CREBL1 by western blotting (streptavidin HRP)", "setting": "[2]", "value": "remarkable reduction of the band of biotinylated CREBL1 was observed, and further, the band that was supposed to be a degradation product of CREBL1 was detected around 50 kDa"}, {"measurement": "in vitro protease assay; western blotting of CREBL1 band", "setting": "[3]", "value": "the band of CREBL1 was reduced significantly after the reaction of active HtrA2 with CREBL1 for overnight (O/N)"}, {"measurement": "in vitro protease assay; western blotting of HNF-4α band", "setting": "[4]", "value": "the band of HNF-4α was reduced significantly after the reaction of active HtrA2 with HNF-4α for overnight (O/N)"}]}
{"protein": "mature HtrA2 (S306A) (SEQ ID NO: 6) with histidine (His)-tag ligated at the C-terminal (protein) MAVPSPPPASPRSQYNFIADVVEKTAPAVVYIEILDRHPFLGREVPISNGSGFVVAADGLIVTNAHVVADRRRVRVRLLSGDTYEAVVTAVDPVADIATLRIQTKEPLPTLPLGRSADVRQGEFVVAMGSPFALQNTITSGIVSSAQRPARDLGLPQTNVEYIQTDAAIDFGNAGGPLVNLDGEVIGVNTMKVTAGISFAIPSDRLREFLHRGEKKNSSSGISGSQRRYIGVMMLTLSPSILAELQLREPSFPDVQHGVLIHKVILGSPAHRAGLRPGDVILAIGEQMVQNAEDVYEAVRTQSQLAVQIRRGRETLTLYVTPEVTE", "values": [{"measurement": "in vitro protease assay; western blotting of ATF6 band", "setting": "[1]", "value": "the degradation of CREBL1 and ATF6 by inactive HtrA2 (mature HtrA2 (S306A)) was not observed"}, {"measurement": "in vitro protease assay; degradation pattern of biotinylated CREBL1 by western blotting (streptavidin HRP)", "setting": "[2]", "value": "the degradation of CREBL1 by inactive HtrA2 (mature HtrA2 (S306A)) was not observed, and the band around 50 kDa as above was not detected"}, {"measurement": "in vitro protease assay; western blotting of CREBL1 band", "setting": "[3]", "value": "the degradation of CREBL1 and ATF6 by inactive HtrA2 (mature HtrA2 (S306A)) was not observed"}, {"measurement": "in vitro protease assay; western blotting of HNF-4α band", "setting": "[4]", "value": "the degradation of HNF-4α by inactive HtrA2 (mature HtrA2 (S306A)) was not observed"}]}
